From patent US20050074821A1 (Amgen, published 2005)

Legend:
[1] = biological target: T1, recombinant human NGF 1-120 (human, UniProt P01138 122-241); test: cell-based or functional assay
Target sequence in this assay (P01138 other isoform, or with tags, fused parts or gaps, form in doubt): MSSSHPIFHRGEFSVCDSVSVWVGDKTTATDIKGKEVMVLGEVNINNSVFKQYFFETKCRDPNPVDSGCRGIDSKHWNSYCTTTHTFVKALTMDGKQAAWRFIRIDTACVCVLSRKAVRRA

[2] = biological target: T2, NGF Lys-C peptide K1 (37.6) SSSHPIFHRGEFSVCDSVSVWVGDK (human, Cysteine residues were reduced and carboxymethylated); test: Lys-C digest of NGF incubated with antibody, Microcon 100 separation, reversed phase HPLC
T2 construct: Calculated mass 2821; observed mass 2828.2
T2 peptide: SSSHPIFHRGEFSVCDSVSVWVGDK

[3] = biological target: T3, NGF subtilisin peptide S2 (28.3) EVMVL (35-39) (human); test: subtilisin-digested NGF incubated with antibody, Microcon 10 separation, HPLC of bound and unbound fractions
T3 peptide: EVMVL

[4] = biological target: T4, NGF subtilisin peptide S1 (4.4) SRKAVRR (113-119) (human); test: as above
T4 peptide: SRKAVRR

[5] = biological target: T1, recombinant human NGF 1-120; test: KinExA; 10 pM and 30 pM Ab 4D4 equilibrated with huNGF in solution for 8 h, free antibody captured on huNGF-coated beads, dual-curve one-site fit
Target sequence in this assay (P01138 other isoform, or with tags, fused parts or gaps, form in doubt): as the sequence (P01138 other isoform, or with tags, fused parts or gaps, form in doubt) above

[6] = biological target: T5, NGF Lys-C peptide K2 (39.5) QAAWRFIRIDTACVCVLSRK (human, Cysteine residues were reduced and carboxymethylated); test: Lys-C digest of NGF incubated with antibody, Microcon 100 separation, reversed phase HPLC
T5 construct: Calculated mass 2452; observed mass 2459.5
T5 peptide: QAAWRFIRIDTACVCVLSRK

[7] = biological target: recombinant rat beta-NGF (R&D Systems) (rat, UniProt P25427 122-241); test: cell-based or functional assay
[8] = biological target: T1, recombinant human NGF 1-120; test: cell-based or functional assay; remark: listed apart in the source
Target sequence in this assay (P01138 other isoform, or with tags, fused parts or gaps, form in doubt): as the sequence (P01138 other isoform, or with tags, fused parts or gaps, form in doubt) above

[9] = biological target: T6, synthetic hNGF peptide 33582-27-01 SSSHPIFHRGEFSVC (1-15) (human, conjugated through cysteine to a maleimide activated plate); test: peptide ELISA, Ab binding signal; peptide #1, N-terminus, 1-15
T6 construct: also called Peptide # 1; peptide #1
T6 peptide: SSSHPIFHRGEFSVC

[10] = biological target: T7, synthetic hNGF peptide 33582-27-16 WNSYATTTHTFVKALC (76-90) (human, C-terminal cysteine tail, conjugated to a maleimide activated plate); test: peptide ELISA, Ab binding signal; peptide #16, internal, 76-90
T7 construct: also called Peptide # 16; peptide #16
T7 peptide: WNSYATTTHTFVKALC

[11] = biological target: T8, synthetic hNGF peptide 33582-27-18 FVKALTMDGKQAAWRC (86-100) (human, C-terminal cysteine tail, conjugated to a maleimide activated plate); test: ELISA, peptide conjugated to maleimide plate, 4D4.IgG1 at 0, 3, 10, 30 ug/ml, anti-hFc-HRP
T8 construct: also called Peptide # 18
T8 peptide: FVKALTMDGKQAAWRC

[12] = biological target: T9, synthetic hNGF peptide 33582-27-20 QAAWRFIRIDTAAVC (96-110) (human, conjugated through cysteine to a maleimide activated plate); test: peptide ELISA, Ab binding signal; peptides # 20-21, C-terminus, 96-115
T9 construct: also called Peptide # 20
T9 peptide: QAAWRFIRIDTAAVC

[13] = biological target: T10, synthetic hNGF peptide 33582-27-21 FIRIDTAAVAVLSRKC (101-115) (human, C-terminal cysteine tail, conjugated to a maleimide activated plate); test: as above
T10 construct: also called Peptide # 21
T10 peptide: FIRIDTAAVAVLSRKC

[14] = biological target: T11, synthetic hNGF peptide 33582-27-17 TTTHTFVKALTMDGKC (81-95) (human, C-terminal cysteine tail, conjugated to a maleimide activated plate); test: peptide ELISA, Ab binding signal; peptide #17, L4, 81-95
T11 construct: also called Peptide # 17; peptide #17
T11 peptide: TTTHTFVKALTMDGKC

[15] = biological target: T12, synthetic hNGF peptide 33582-27-19 TMDGKQAAWRFIRIDC (91-105) (human, C-terminal cysteine tail, conjugated to a maleimide activated plate); test: peptide ELISA, Ab binding signal; peptide #19, internal, 91-105
T12 construct: also called Peptide # 19; peptide #19
T12 peptide: TMDGKQAAWRFIRIDC

[16] = biological target: T13, synthetic hNGF peptide 33582-27-10 NSVFKQYFFETKARDC (46-60) (human, C-terminal cysteine tail, conjugated to a maleimide activated plate); test: peptide ELISA, Ab binding signal; peptide #10, L2, 46-60
T13 construct: also called Peptide # 10; peptide #10
T13 peptide: NSVFKQYFFETKARDC

[17] = biological target: T1, recombinant human NGF 1-120; test: cell-based or functional assay; remark: listed apart in the source
Target sequence in this assay (P01138 other isoform, or with tags, fused parts or gaps): as the sequence (P01138 other isoform, or with tags, fused parts or gaps, form in doubt) above

Sequence of recombinant rat beta-NGF (R&D Systems) (P25427 122-241 limits assumed): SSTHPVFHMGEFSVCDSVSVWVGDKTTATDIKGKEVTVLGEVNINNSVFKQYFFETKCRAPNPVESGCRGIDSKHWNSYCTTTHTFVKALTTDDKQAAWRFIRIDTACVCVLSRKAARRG

B1: anti-NGF monoclonal antibody 4D4 (antibody, V domains shown)
VH: EVQLVESGGGLVQPGGSLRLSCAASGFTLRSYSMNWVRQAPGKGLEWVSYISRSSHTIFYADSVKGRFTISRDNAKNSLYLQMDSLRDEDTAMYYCARVYSSGWHVSDYFDYWGQGILVTVSS
VL: AIQLTQSPSSLSASVGDRVTITCRASQGISSALAWYQQKPGKAPKLLIYDASSLESGVPSRFSGSGSGTDFTLTISSLQPEDFATYYCQQFNSYPLTFGGGTKVEIK
notes: also called 4D4.D7; #124 (parent)
B1 was tested, and the “IC50, inhibition of NGF-induced VR1 expression in rat DRG neurons; sample 119 (from 124)” value [1] was less than 1200 pM, the “IC50, inhibition of NGF-induced VR1 expression in rat DRG neurons; sample 124 (parent)” value [1] was less than 570 pM and the “IC50, inhibition of NGF-induced VR1 expression in rat DRG neurons; sample 125 (from 124)” value [1] was less than 300 pM. The “IC50, inhibition of NGF-induced VR1 expression in rat DRG neurons; sample 167 (from same sample as 124)” value [1] was 500 pM, the binding result [2] was “binds” and the binding result [3] was “binds”. The binding result [4] was “binds”, the Kd [5] was roughly 4 pM and the binding result [6] was “binds”.

B2: 4D4.IgG1 (recombinant anti-NGF 4D4 antibody with IgG1 heavy chain constant region) (antibody, V domains shown)
VH: B1 VH
VL: AIQLTQSPSSLSASVGDRVTITCRASQGISSALAWYQQKPGKAPKLLIYDASSLESGVPSRFSGSGSGTDFTLTISSLQPEDFATYYCQQFNSYPLTFGGGTKVEIKR
notes: also called 4D4.IgG1.S; human anti-hNGF Ab 4D4.IgG1
For B2, the “IC50 @ rNGF (nM), DRG neuron based NGF neutralization bioassay; 4D4.IgG1.R” value [7] was greater than 34 nM, the “IC50 @ rNGF (nM), DRG neuron based NGF neutralization bioassay; 4D4.IgG1.S” value [7] was greater than 45 nM and the “IC50 @ hNGF (nM), DRG neuron based NGF neutralization bioassay; 4D4.IgG1.R” value [8] was 0.149 nM. For the same binder, the “IC50 @ hNGF (nM), DRG neuron based NGF neutralization bioassay; 4D4.IgG1.S” value [8] was 0.159 nM, the binding result [9] was “binds” and the binding result [10] was “binds”. B2: binds [11]; binds [12]; binds [13]. B2: binds [14]; binds [15]; binds [16].

B3: anti-NGF antibody 14D11 (antibody, V domains shown)
VH: EVQLVQSGAEVKKPGESLKISCKGSGYNFTTYWIGWVRQMPGKGLEWMGIIYPGDSDTKYSPSFQGQVTISADKSISTAYLQWSSLKASDTAMYYCARNYYGSGTYYYYYGMNVWGQGTTVTVSS
VL: DIQMTQSPSSVSASVGDRVTITCRASQGISIWLAWYQHKPGKAPKLLIYAASSLQSGVPSRFSGSGSGTDFTLTISSLQPEDFATYYCQQANSFPWTFGQGTKVEIK
With B3 the IC50 @ rNGF (nM), DRG neuron NGF neutralization assay; clone 14D11 [7] was greater than 20 nM and the IC50 @ hNGF (nM), DRG neuron NGF neutralization assay; clone 14D11 [17] was 0.28 nM.

B4: anti-NGF antibody 14D10 (antibody, V domains shown)
VH: EVQLVESGGGLVQPGRSLRLSCTASGFTFEDYAMHWVRQAPGKGLEWVSGISWNRGIIGYADSVKGRFTVSRDNAKNSLYLQMNSLRAEDTALYYCAKEGYYGSGRPGYFYYVMDVWGQGTTVTVSS
VL: EIVLTQSPGTLSLSPGERATLSCRASQSVSSGFLAWFQQKPGQAPRLLIYGASSRATAIPDRFSGSGSGTDFTLTISRLEPEDFAVYYCQQYGSSPYTFGQGTKLEIK
Binder B4 has an IC50 @ rNGF (nM), DRG neuron NGF neutralization assay; clone 14D10 [7] greater than 13 nM and an IC50 @ hNGF (nM), DRG neuron NGF neutralization assay; clone 14D10 [17] of 0.392 nM.
